This assay concerns the target Chikungunya virus nuclear capsid protein (Chikungunya virus). Nature of the assay: cryo-EM structure.

Values joined by “and” are separate entries in the source; they are usually repeats but may differ in a detail not shown here. Equal values may be shown once.

The term stoichiometry N denotes a count of units in the complex or per binding partner. As to “Chikungunya virus nuclear capsid protein (natural protein)”, the stoichiometry N was 5 and 6.

The record behind these values is PMC3614025.
